What all share (assay): counting of free and bound DNA origami nanostructures in electron micrographs (TEM); peptides displayed on DNA origamis A and B through oligonucleotide tags; gel-purified An and Bn mixed, total monomer concentrations 0.25-2.4 nM; background of random coincidences subtracted; Kd from the slope of a linear fit through the origin; additional systematic error of approximately 20%

Data set [1] concerns the target T1, B1: DNA origami B decorated with one β-CC-Di-KE (azidonorleucine (Z) at the N-terminus, joined to oligonucleotide tag β, which is hybridised to a handle of DNA origami B).
T1 chain: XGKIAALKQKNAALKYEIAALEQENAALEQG
The following applies: both partners purified.

The target in data set [2] is T2, B2: DNA origami B decorated with two β-CC-Di-KE (azidonorleucine (Z) at the N-terminus, joined to oligonucleotide tag β, which is hybridised to a handle of DNA origami B).
T2 chain: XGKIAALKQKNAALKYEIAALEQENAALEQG
The following applies: both partners purified.

Data set [3] concerns the molecule itself.
Data set [4] deals with T3, B3: DNA origami B decorated with three β-CC-Di-KE (azidonorleucine (Z) at the N-terminus, joined to oligonucleotide tag β, which is hybridised to a handle of DNA origami B).
T3 chain: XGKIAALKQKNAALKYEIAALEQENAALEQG
The following applies: both partners purified.

Where no end group is shown, it is not given here. [ ]: non-standard residue; d: D form. Lys(N3) = [N-]=[N+]=NCCCC[C@H](N)C(=O)O

A word on the Kd: it is the equilibrium constant for the complex coming apart. Lower therefore signals tighter binding.

B1: A1: DNA origami A decorated with one CC-Di-EK-α (other)
chain: GEIAALEQENAALEQKIAALKWKNAALKQG[Lys(N3)]-NH2
modifications: also: tag α hybridised to handle of DNA origami A, one copy per origami
With B1, the Kd in data set [1] was 130 ± 20 nM.

B2: A2: DNA origami A decorated with two CC-Di-EK-α (other)
chain: GEIAALEQENAALEQKIAALKWKNAALKQG[Lys(N3)]-NH2
modifications: not fully specified; also: tag α hybridised to handle of DNA origami A, two copies per origami
The molecule B2 showed a Kd in data set [2] of 25 ± 3 nM.

B3: A3: DNA origami A decorated with three CC-Di-EK-α (other)
chain: GEIAALEQENAALEQKIAALKWKNAALKQG[Lys(N3)]-NH2
modifications: also: tag α hybridised to handle of DNA origami A, three copies per origami
For the molecule B3, the results for the Kd in data set [3] and in data set [4] were 24 ± 4 nM and 0.7 ± 0.1 nM, respectively.
